Laboratory results as given in PMC3164876.

How the values were obtained:
[1] = molecular target: SC1918/H1 (A/South Carolina/1/1918 (H1N1)) HA ectodomain (influenza A virus A/South Carolina/1/1918 (H1N1)) (UniProt Q9WFX3); assay: SPR
[2] = molecular target: HB80 Δ54–95, Met26Thr, Asn36Lys, displayed on yeast; assay: flow cytometry on cells
[3] = molecular target: HB80 Met26Thr, displayed on yeast; assay: flow cytometry on cells
[4] = molecular target: HB36 Asp47Ser, displayed on yeast; assay: flow cytometry on cells
[5] = molecular target: HB80 Asn36Lys, displayed on yeast; assay: flow cytometry on cells
[6] = molecular target: HB80.3 (HB80 Δ54–95, Asp12Gly, Ala24Ser, Met26Thr, Asn36Lys), displayed on yeast; assay: flow cytometry on cells
[7] = molecular target: HB36.4 (HB36 Asp47Ser, Ala60Val, Asn64Lys), displayed on yeast; assay: flow cytometry on cells
[8] = molecular target: HB36.3 (HB36 Asp47Ser, Ala60Val), displayed on yeast; assay: flow cytometry on cells
[9] = molecular target: HB80 Met26Thr Asn36Lys, displayed on yeast; assay: flow cytometry on cells

“HB36.3 (HB36 Asp47Ser, Ala60Val), purified from E. coli (designed binder)” was tested, and the Kd [1] was 29 nM.
With “HB36.4 (HB36 Asp47Ser, Ala60Val, Asn64Lys), purified from E. coli (designed binder)” the Kd [1] was 22 nM.
For “HB80.3 (HB80 Δ54–95, Asp12Gly, Ala24Ser, Met26Thr, Asn36Lys), purified from E. coli (designed binder)”, the Kd [1] was 38 nM.
Substance “SC1918/H1 (A/South Carolina/1/1918 (H1N1)) HA ectodomain (from UniProt Q9WFX3 18-529) (domain or fragment)” has a Kd [2] of 5 nM, a Kd [3] of 100 nM and a Kd [4] of 5 nM. For the same substance, the Kd [5] was 300 nM, the Kd [6] was 3 nM and the Kd [7] was 4 nM. For the same substance, the Kd [8] was 4 nM and the Kd [9] was 7.5 nM.
